This is an account of results in publication PMC5966407, “Distinct roles of XPF-ERCC1 and Rad1-Rad10-Saw1 in replication-coupled and uncoupled inter-strand crosslink repair” (Nature Communications, 2018).

For this test, the target named is Rpa1 (yeast), the large subunit of the replication protein A (RPA) complex (S. cerevisiae (endogenous in yeast …, UniProt P22336 1-621)). Kind of test: cell-based or functional assay.
Rpa1 (yeast), the large subunit of the replication protein A (RPA) complex (S. cerevisiae, sequence (P22336 whole entry, one chain of several): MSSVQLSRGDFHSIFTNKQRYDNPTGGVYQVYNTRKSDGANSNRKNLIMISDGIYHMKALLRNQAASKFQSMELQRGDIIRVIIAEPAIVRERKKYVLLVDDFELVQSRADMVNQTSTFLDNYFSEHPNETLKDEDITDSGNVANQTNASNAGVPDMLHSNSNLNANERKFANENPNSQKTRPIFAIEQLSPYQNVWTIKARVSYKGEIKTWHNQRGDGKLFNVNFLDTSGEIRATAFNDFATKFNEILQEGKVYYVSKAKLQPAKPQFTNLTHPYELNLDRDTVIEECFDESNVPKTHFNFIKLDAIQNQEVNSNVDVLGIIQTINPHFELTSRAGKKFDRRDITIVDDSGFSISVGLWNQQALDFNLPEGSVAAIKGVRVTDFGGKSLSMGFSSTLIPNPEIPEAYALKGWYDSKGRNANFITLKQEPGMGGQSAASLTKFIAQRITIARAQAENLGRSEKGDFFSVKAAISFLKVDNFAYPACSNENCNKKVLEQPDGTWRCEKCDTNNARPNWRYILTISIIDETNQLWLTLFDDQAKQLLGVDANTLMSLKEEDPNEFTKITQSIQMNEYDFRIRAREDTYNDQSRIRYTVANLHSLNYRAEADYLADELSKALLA

B1: His-Rad1 (natural protein, S. cerevisiae, UniProt P06777 1-1100, looked up)
chain: MSQLFYQGDSDDELQEELTRQTTQASQSSKIKNEDEPDDSNHLNEVENEDSKVLDDDAVLYPLIPNEPDDIETSKPNINDIRPVDIQLTLPLPFQQKVVENSLITEDALIIMGKGLGLLDIVANLLHVLATPTSINGQLKRALVLVLNAKPIDNVRIKEALEELSWFSNTGKDDDDTAVESDDELFERPFNVVTADSLSIEKRRKLYISGGILSITSRILIVDLLSGIVHPNRVTGMLVLNADSLRHNSNESFILEIYRSKNTWGFIKAFSEAPETFVMEFSPLRTKMKELRLKNVLLWPRFRVEVSSCLNATNKTSHNKVIEVKVSLTNSMSQIQFGLMECLKKCIAELSRKNPELALDWWNMENVLDINFIRSIDSVMVPNWHRISYESKQLVKDIRFLRHLLKMLVTSDAVDFFGEIQLSLDANKPSVSRKYSESPWLLVDEAQLVISYAKKRIFYKNEYTLEENPKWEQLIHILHDISHERMTNHLQGPTLVACSDNLTCLELAKVLNASNKKRGVRQVLLNKLKWYRKQREETKKLVKEVQSQDTFPENATLNVSSTFSKEQVTTKRRRTRGASQVAAVEKLRNAGTNVDMEVVFEDHKLSEEIKKGSGDDLDDGQEENAANDSKIFEIQEQENEILIDDGDAEFDNGELEYVGDLPQHITTHFNKDLWAEHCNEYEYVDRQDEILISTFKSLNDNCSLQEMMPSYIIMFEPDISFIRQIEVYKAIVKDLQPKVYFMYYGESIEEQSHLTAIKREKDAFTKLIRENANLSHHFETNEDLSHYKNLAERKLKLSKLRKSNTRNAGGQQGFHNLTQDVVIVDTREFNASLPGLLYRYGIRVIPCMLTVGDYVITPDICLERKSISDLIGSLQNNRLANQCKKMLKYYAYPTLLIEFDEGQSFSLEPFSERRNYKNKDISTVHPISSKLSQDEIQLKLAKLVLRFPTLKIIWSSSPLQTVNIILELKLGREQPDPSNAVILGTNKVRSDFNSTAKGLKDGDNESKFKRLLNVPGVSKIDYFNLRKKIKSFNKLQKLSWNEINELINDEDLTDRIYYFLRTEKEEQEQESTDENLESPGKTTDDNALHDHHNDVPEAPV
Turning to B1, the “3′ flap cleavage by purified His-Rad1–Rad10 (200 nM) in the presence of purified yeast RPA (80 nM), in vitro endonuclease assay” value is roughly 2 fold.
